Results taken from publication PMC6566870, “Influence of Chemokine N-Terminal Modification on Biased Agonism at the Chemokine Receptor CCR1” (International Journal of Molecular Sciences, 2019).

T1: N-terminally His6-tagged cMyc-tagged human CCR1 (human, UniProt P32246 1-355)
T1 construct: C-C chemokine receptor 1 (CCR1), human; stably expressed in Flp-In T-REx 293 cells; also called chemokine receptor 1; source: Flp-In T-REx 293 cells, stably expressed; not shown: His6, N-terminal, kept; cMyc, N-terminal, kept
T1 sequence (looked up): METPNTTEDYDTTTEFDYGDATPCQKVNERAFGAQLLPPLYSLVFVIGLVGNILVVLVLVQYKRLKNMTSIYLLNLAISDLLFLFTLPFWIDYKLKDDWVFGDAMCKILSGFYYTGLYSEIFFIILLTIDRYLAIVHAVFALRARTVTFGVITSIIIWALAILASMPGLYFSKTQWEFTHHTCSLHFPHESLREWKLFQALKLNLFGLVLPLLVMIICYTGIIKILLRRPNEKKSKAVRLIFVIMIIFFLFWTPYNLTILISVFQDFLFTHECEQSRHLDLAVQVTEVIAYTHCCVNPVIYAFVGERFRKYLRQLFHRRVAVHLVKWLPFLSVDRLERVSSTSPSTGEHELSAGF

B1: CCL7 (ligand)
chain: not shown
notes: CCL7 (MCP-3), human, wild type; N-terminal region of ten residues before the CC motif; also called monocyte chemoattractant protein-3; MCP-3; not shown: His6, N-terminal, cleaved
B2: CCL8 (Lys-46 allele, Pro-8→Ala) (ligand, human, UniProt P80075 24-99, looked up)
chain: QPDSVSIAITCCFNVINRKIPIQRLESYTRITNIQCPKEAVIFKTKRGKEVCADPKERWVRDSMKHLDQIFQNLKP
notes: CCL8 (MCP-2), human, Lys-46 allele, with Pro-8→Ala to make the protein monomeric; N-terminal region of ten residues before the CC motif; also called MCP-2; not shown: His6, N-terminal, cleaved

What was measured:
[1] = target: T1, N-terminally His6-tagged cMyc-tagged …; assay: radioligand binding; competitive displacement of 50 pM 125I-CCL3 from membranes of Flp-In T-REx 293 cells expressing CCR1; 2 h at 37 °C; two sets of experiments (Table 1, Table 3); conditions: one partner purified
[2] = target: T1, N-terminally His6-tagged cMyc-tagged …; assay: cell-based or functional assay
[3] = target: T1, N-terminally His6-tagged cMyc-tagged …; assay: radioligand binding; competitive displacement of 50 pM 125I-CCL3 from membranes of Flp-In T-REx 293 cells expressing CCR1; 2 h at 37 °C; two sets of experiments (Table 1, Table 3); conditions: one partner purified; remark: listed apart in the source
[4] = target: T1, N-terminally His6-tagged cMyc-tagged …; assay: cell-based or functional assay; remark: listed apart in the source

Binder | IC50 [1] [nM] | pIC50 [1] | Gαi2 activation (BRET), EC50 [2] [nM] | Gαi2 activation (BRET), pEC50 [2] | IC50 [3] [nM] | pIC50 [3] | ERK1/2 phosphorylation, EC50 [4] [nM] | ERK1/2 phosphorylation, pEC50 [4] | G protein activation (Gαi1, BRET), EC50 [4] [nM] | G protein activation (Gαi1, BRET), pEC50 [4] | inhibition of forskolin-induced cAMP production, EC50 [4] [nM] | inhibition of forskolin-induced cAMP production, pEC50 [4]
B1 | 1.2 | 8.9 -log M | 26.4 | 7.6 -log M | 0.33 | 9.5 -log M | 9.6 | 8 -log M | 14 | 7.9 -log M | 9.5 | 8 -log M
B2 | – | – | – | – | 2.3 | 8.6 -log M | 65.5 | 7.2 -log M | 30 | 7.5 -log M | 48 | 7.3 -log M
